# Experiment: yeast display, Sf9 membrane polyspecificity reagent, FACS + sequencing; frameworks hold sequencing errors
# Procedure, shortened: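 Galactose-induced (36–48 hours) yeast carrying a synthetic nanobody display library were exposed to 10% biotinylated, detergent-solubilized Sf9 membrane reagent at 4 °C for 1 hour. FACS followed streptavidin microbead enrichment, using low and high (top ~1%) gates for expression (anti-HA) and reagent binding (streptavidin). Colony PCR, MiSeq 2 × 250 sequencing and CDR-length filtering followed. Labels for polyreactivity reflect the gate of origin.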
row,Sequence,polyreactivity (PSR sort gate)
1,QVQLVESGGGLVQAGGSLRLSCAASGFIFNDYAMGWYRQAPGKERELVAAISRSGGSTYYADSVKGRFTISRDNAKNTVYLQMNSLKAEDTAVYYCAADGLSGYRYYYWGQGTQVTVSS,high polyreactivity
2,QVQLVESGGGLVQAGGSLRLSCAASGNTFGNYAMGWYRQAPGKERELVAAITTIGGSTYYADSVKGRFTISRDNAKNTVYLQMNRLKPEDTAVYYCAKVENRYPVGKYDYWGQGTQVTVSS,low polyreactivity
3,QVQLQESGGGLVQAGGSLRLSCAASGTIFTARFMGWYRQAPGKERELVATITDGGNTNHADSVKGRFTISRDNAKNTVYLQMNSLKPEDAAVYFCAAGEVDNDTLLYWGQGSQVTVSS,low polyreactivity
4,QVQLVESGGGLVQAGGSLRLSFAASGYIFYPNVMGWYRQAPGKERELVADISSGGSTNYADSVKGRFTISRDNAKNTVYLQINSLKPEDTAVYYCAKGPRLYFTRDKAHWKYDYWGQGTQVTVSS,low polyreactivity
5,QVQLVESGGGLVQAGGSLRLSCAASGRTSIYNAMGWYRQAPGKDREFVAAITSSGGSTYYADSVKGRFTISRDNAKNTVYLQMNSLKPEDTAVYYCAARPAYVYAYYRYGYWGQGTQVTVSS,high polyreactivity
6,QLQLVESGGGLVQAGGSLRLSCAASGSTYGPYAMGWYRQAPGKERELVSAITISGDSTNYADSVKGRFTISRDNAKNTVYLQMNSLKPEDTAVYYCAAAYYWLQSWYDYWGQGTQVTVSS,low polyreactivity
7,QVQLVESGGGLVQAGGSLRLSCAASGSIFYSYAMGWYRQAPGKERELVAAITSNAGGITRYADSVKGRFTISRDNAKNTVYLQMNSLKPEDTAVYYCAARGHYYTRYWGQGTQVTVSS,high polyreactivity
8,QVQLVESGGGLVQAGGSLRLSCAASGRIFGTNAMGWYRQAPGKERELVATITRGGGNTYYADSVKGRFTISRDNAKNTVYLQMNSLKPEDTAVYYCAAKFHRFAWYSHYDYWGQGTQVTVSS,low polyreactivity
9,QVQLVESGGGLVQAGGSLRLSCAASGFIFGVNAMGWYRQAPGKERELVAAIRWRGGSTYYADSVKGRFTISRDNAKNTVYLQMNSLKPEDTAVYYCAAARFVGGSGYVRILYYWGQGTQVTVSS,high polyreactivity
10,QVQLVESGGGLVQAGGSLRLSCAASGSTFFINAMGWYRQGPGKERELVASISYSGGSTYYAHSVKGRFTISRDNAKNTVYLQLNSLKPEDTAVYYCNADVRVFLHYYKYNYWGQGTQVTVSS,low polyreactivity
11,QVQLVESGGGLVQAGGSLRLSCASSGYTFDYYTMGWYRQAPGKERELVARITASGGSTYYADSVKGRFTISRDNAKNTVYLQMNSLKPEDTSVYYCAKAWYRYSRFDYWGQGTQVTVSS,high polyreactivity
12,QVQLVESGGGLVQAGGSLRLSCAASGRTFWANAMGWYRQAPGKERELVAAITSGGSTNYADSVKGRFTISRDNAKNTVYLQMNSLKPEDTAVYYCAAAINRYRRTFNYWGQGTQVTVSS,high polyreactivity
13,QVQLVESGGGLVQAGGSLRLSCAASGDIFDAYAMGWYRQAPGKERELVAAISRSGGSTYYADSVKGRFTISRDNAKNTVYLQMNSLKPEDTAVYYCATRFSRRYVRYDYWGHGTQVTVSS,high polyreactivity
14,QVQLVESGGGLVQAGGSHRLSCAASGLTFYQYSMGWYRQAPGKERELVAAISKSAGSTYYADSVKGRFTISRDNAKNTVYLQMNSLKPEDTAVYYCAARVLRLRYDYWGQGTQVTVSS,high polyreactivity
15,QVQLVESGGGLVQAGGSLRLSCAASGIIFYGYAMGWYRQAPGKERELVAAIDSGVSTNYADSVKGRFTISRDNAKNTVYLQMNSLKPEDTAVYYCAVQPWTRDNGYDYWGQGTQVTVSS,low polyreactivity
16,QVQLVESGGGLVHAGGSLRLSCAPSAFTFAYYAMGWYRQAPGKEREFVAAITKGGGSTNYADSVKGRFTISRDNAKNTVYLQMYSLKPEDTAVYYSNADYFVWYIGRVFSRYGYWGQGTQVTVSS,low polyreactivity
17,QVQLVESGGGLVQAGGSLRLSCAASGFIFPWYAMGWYRQAPGKERELVAAISESGGGTYYADSVKGRFTISRDYAKNTVYLQMNSLKPEDTAVYYCNKAPRYPYGGYDYWGQGTQVTVSS,low polyreactivity
18,QFQLVESGGGLVQAGGSLRLSCAASGSIFFIYAMGWYRQAPGKERELVATITSGGSTYYADSVKGRFTISRDNAKNTVYLQMNSLKPEDTAVYYCAVDEYFAFDYWGQGTQVTVSS,low polyreactivity
19,QVQLVESGGGLVQAGGSLRLSCAASGSTFIVNALGGYRQAPGHEREFVAAIRWSGGSTYYADSVKGRFTISRDNAKNTVYFQMNSLKPDDTAVYYCNARSYQSARFRGGYWGQGTQVTVSS,high polyreactivity
20,QVHLVESGGGLVQAGGSLRLSCAASGFTFVRYAMGWYRQAPGKERELVASISYSGGSTYYADSVKGRFTISRDNAKNTVYVQMNSLKPEATAVYYCAAVIYRGYYYWGQGTQVTVSS,high polyreactivity
21,QVQLVESGGGLVQAGGSLRLSCSASGFTFNYNAMGWYRQAPGKERELVASITRSGGRTYYADSVKGRFTISRDNAKITVYLQMNSLKPEDTAVYYCAAEVWYSLSYRVYGGYDFWGQGTQVTVSS,high polyreactivity
22,QVQLVETGGGLVQAGGSLRLSCAASGSTFVYNAMGWYRPAPGNERELVAAITNSGSTYYADSVKGRFTISRDNAKNTVYLQMNSLKPEDTAVYDCAARSRVYWARSGYWGQGTQVTVSS,low polyreactivity

row,Sequence,polyreactivity (PSR sort gate)
1,QVQLVESGGGLVQSGGSLRLSCAASGFTFSRYAMGWYRQAPGKERELVAAIRLRDGITYYADSVKVRFTISRDNAKNTVYLQMNSLKPEDTAVYYFNAVNRTPVSQLDYWGQGTQVTVSS,high polyreactivity
2,QVQHVESGGGLDQGRGSLSLSCAASARNLSSNVLGRYRQAPGNETEFVASITYSGSSTYYADSVKGRFTISRDYAKNTFYLQMNSLKPEDTAVYYCATRYGYSDGDYWGQGTQVTVSS,low polyreactivity
3,QVQLVESGGGLVQAGGSLRLSSAASGSTFTRYGMGWYRQAPGKERELVAAITTSGSSTYYADSVKGRFTISRDNAKNTVYLQMNSLKPEDTAVYYCAADWSSWGFDYWGQGTQVTVSS,low polyreactivity
4,QVQLVESCGGLVQAGGSLRLICAASGRTFYHNAMGWYRQAPGKERELVATINSGGSTYAESVKGRFTISRDNAKNTVYFQMNSLKPEDTAVYYCAATFWSRSRFYYRYDYWGQGTQVTVSS,high polyreactivity
5,QVQLVESGGGVVQAGGSLRLSCAASGSTFYANAMGWSRQAPGKERELVAAISSGGSTYYADSVKGRFTISRDNAKNTVYLQMNSLKPDDTAVYYCAKPFYSYRYGFGYWGQGTQVTVSS,low polyreactivity
6,QVQLVESGGGLVQAGGSLRLCCAAYGRTFRGNAMRLYTQAPGKERELVAVITSGDSTYYADSVKGRFTNSRDNAKNTVYLQMNSLKPEDTAVYYCAAYLWKSKRKLDYWGQGTQVTVTS,high polyreactivity
7,QFQLVESGGGFVQAGGSLRLSCAASGRIFKTYMGWYRQAPGKESELVAGITRGGGSTYYADSVKGRFTISRDNAKNTVYLQMNSLKPEDTAVYYCAADAWSSYLDRPFDYWGQGTQVTVSS,high polyreactivity
8,QVQLLESGGGLVQAGGSLRLTCAASGSIFVIYAMGWYRQAPGKVRELVAAIDSSDGSTYYADSVKGRFTISRDNAKNTVYLQMNSLKPEDTAVYYCAARRLYWGQGTQVTVSS,high polyreactivity
9,QVQLVESGGGLVQAGGSLRLSCAASGSIFSNNAMGWYRQAPGKEREFVAAIRGRGTRAYYADSVKGRFTISRDNAKNTVYLQMNSLKPEDTAVYYCAASARTYVQSGYWGQGTQVTVSS,high polyreactivity
10,QVQLVESGGGLVQAGGSLRLSCAASGSTFYFYAMGGYRQAPGKERELVAVISSGGRTYYADSVKGRFTISRDNAKNTVYLQMNSLKPEDTAVYYCAASWPSSLTYYYWGQGTQVTVSS,low polyreactivity
11,QVQLVESGGGLFQAGGSLRLSCAASGFTFFIYAMGGSRQAPGKEREFVAAITGSGGSTYYADSVKGRFTISRDNAKNTVYLQLNSLKPEDTAVYYCNKLSYGRSGYWGQGTQVTVSS,high polyreactivity
12,QVQLVESGGGLVQAGGSLRLSCAASGSTFLTKAMGWNRQAPGKERELVAAISRSGGSTYYADSVKGRFTISRDNAKNTVYLQMNSLKPEDTAVYYGAAYSWRYQAWEFGYWGQGTQVTVSS,high polyreactivity
13,QVQLVESGGGLVQAGGRLSLSCAASGSIFRNNTMGWYRQAPGKERELVAAISGRGTPTSYADSVKGRFTISRDNAKNTVYLQMNSLKPEDTAVYYCAAVYYWRPGWYVRFDYWGQGTQVTVSS,low polyreactivity
14,QVQLVESGGGLLQAGGRLRLSCAASGGIFQGYAMGWYRQAPGKERELVAAISRSGGRTYYADSVKGRFTISRDNAKNTVYLQMNSLKPEDTAVYYCAKSQSAKGGYDYWGQATQVTVSS,high polyreactivity
15,QVQLVESGGGLVQAGGSLRLSCAASGRIFRGNGMGWYRQAPGKERELVAAIRRSGGSTYYADSVKGRFTISRDNAKNTVYLQMNSLKPDDTAVFYCNADYTVVLSRVIYARGYWGQGTQVTVSS,high polyreactivity
16,QVQLVESGGGLVQAGGSLSLSSAASGRPFIRNAMGWSRQAAGKERELVAGINSGGITNYADSVKGRFTISRDNAKNTVYLQMNSLKPVDTAFYYCNARQVLYGLYLRAYPYEYWGQGTQVTVSS,low polyreactivity
17,QDQLVESGGGLVQAGGSLPLSCAASANIFPLYAMGWYRQAPGKERELVAAITWSTTSTYYADSVKGRFTISRDNAKNTVYLQMNSLKPEDTAVYYCKAKTDESYYYSDYDYWVQGTQVTVSS,low polyreactivity
18,QVQLVESGGGLVQAGGSHRLSCAASGITLGRYAMGWYRQAPGKEREFVAAISSWSGGSTTYADSVKGRFTISRDNAKNTVYLQMNSLKPEDTAVYYWNARRYYGRYYLGHSDYDYWGQGTQVTVSS,high polyreactivity
19,QVQLVESGGGLVQAGGSLRLSWAASGITLHGYAMGWYRQAPGKERELVAAITGSGGRTYYADSVKGRFTISRDNAKNTVYLQMNSLKPEDTAVYYCNAGAVYWGYSRGWYERDYWGQGTQVTVSS,high polyreactivity
20,QVQLVESGGGLVQAGGSLRLSCAASGYIFGVYAMGWYRQAPGKERELVARITSGGSTNYADSVKGRFTISRDNAKNTVYLQMNSLKPEDTAVYYCAAAVGNTDREYDYWGQGTQVTVSS,low polyreactivity
21,QVQLVESGGGLVQAGGSLRLSCAASGSTFYTYAMGWYRQAPGKERELVAAITYSGGTTYYADSVKGRFTISRDNAKNTVYLQMNSLKPEDTAVYYCNTRSYYYSDDYWGQGTQVTVSS,low polyreactivity
